Our source for the response values is PMC4215112 (2014).

The chains are these.
B1: M0418 scFv-Fcε fusion protein [human] / Bet v 1.0101 peptide I56 to D69 [modified: biotin at the N-terminus, before the additional glycine; biotin at the N-terminus, before the additional glycine] [birch] (parent complex)
chain 1: QVQLVQSGAEVKKPGESLKISCKGSEYSFPNYWIAWVRQMPGKGLEWMGMIYPGDSDTRYSPSFQGQVNISADKSSRTAFLEWSSLKASDSATYFCARLGGQLWNSYYYYYYMDVWGKGTTVTVSSGGGGSGGGGSGGGGSSYELTQPPSASGTPGQRVTISCSGSSSNIGGNTVNWYQQVPGTAPRLLIYKNNQRPSGVPDRFSGSKSGTSASLAISGLRSEDEADYYCEAWDGGLRGGVFGGGTKLTVLGDYKDDDDKAAA
chain 2: GISFPEGFPFKYVKDG

In the experiment the parent is B1. Put plainly: ELISA; parent: 3.4; read off a plot. For orientation: ELISA stands for enzyme-linked immunosorbent assay.
Turning to chain 2 D15E, the response is ~3.4 Absorbance (450 nm). Next, chain 2 E6K: ~3.4 Absorbance (450 nm); chain 2 F10V: ~3.4 Absorbance (450 nm). For chain 2 K11R, the response is ~0.22 Absorbance (450 nm).

For the variant chain 2 K11E, the response was ~2 Absorbance (450 nm). In the case of chain 2 S3T, the response is ~3.4 Absorbance (450 nm).

Turning to chain 2 S3N, the response was ~3.4 Absorbance (450 nm).

For chain 2 P5S, the response was ~0.17 Absorbance (450 nm). Turning to chain 2 F8L, the response is ~0.2 Absorbance (450 nm). Under chain 2 F8I stands ~2.8 Absorbance (450 nm); under chain 2 F8S, ~0.22 Absorbance (450 nm).
